Source: US6548643
Values belong to the binder of their own block, whether it stands above or below them.

Columns and labels:
Assay in all cases: cell-based or functional assay
[1] = biological target: H-2D^b class I molecule on RMA cells (mouse) (UniProt P01899)
[2] = biological target: T1, H-2D^d class I molecule on P815 cells (mouse) (UniProt P01900)
T1 sequence (MHC heavy, looked up): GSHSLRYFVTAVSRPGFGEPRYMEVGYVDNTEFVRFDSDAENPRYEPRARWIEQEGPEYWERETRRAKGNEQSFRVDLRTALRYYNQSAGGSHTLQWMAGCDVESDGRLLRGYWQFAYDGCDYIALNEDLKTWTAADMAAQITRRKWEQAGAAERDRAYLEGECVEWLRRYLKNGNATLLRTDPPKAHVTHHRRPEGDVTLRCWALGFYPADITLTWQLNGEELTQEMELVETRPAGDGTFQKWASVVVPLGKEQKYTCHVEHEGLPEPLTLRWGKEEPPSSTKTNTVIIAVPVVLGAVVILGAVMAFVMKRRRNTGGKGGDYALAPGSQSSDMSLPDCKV

[3] = biological target: H-2L^d class I molecule on P815 cells (mouse) (UniProt P01897)
[4] = biological target: H-2K^b class I molecule on RMA cells (mouse) (UniProt P01901)
[5] = biological target: H-2K^d class I molecule on P815 cells (mouse) (UniProt P01902)
Sequence of UniProt P01902 (P01902 22-368): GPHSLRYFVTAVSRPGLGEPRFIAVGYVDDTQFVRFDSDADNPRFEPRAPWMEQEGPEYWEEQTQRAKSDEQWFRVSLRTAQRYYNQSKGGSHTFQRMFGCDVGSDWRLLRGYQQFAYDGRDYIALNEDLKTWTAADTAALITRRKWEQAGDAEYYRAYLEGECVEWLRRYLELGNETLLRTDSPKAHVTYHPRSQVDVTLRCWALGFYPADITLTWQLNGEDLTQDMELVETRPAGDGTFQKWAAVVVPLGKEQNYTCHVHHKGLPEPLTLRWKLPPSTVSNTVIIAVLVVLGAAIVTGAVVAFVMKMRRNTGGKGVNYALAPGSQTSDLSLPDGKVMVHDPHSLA

Sequence of UniProt P01901 (P01901 22-369): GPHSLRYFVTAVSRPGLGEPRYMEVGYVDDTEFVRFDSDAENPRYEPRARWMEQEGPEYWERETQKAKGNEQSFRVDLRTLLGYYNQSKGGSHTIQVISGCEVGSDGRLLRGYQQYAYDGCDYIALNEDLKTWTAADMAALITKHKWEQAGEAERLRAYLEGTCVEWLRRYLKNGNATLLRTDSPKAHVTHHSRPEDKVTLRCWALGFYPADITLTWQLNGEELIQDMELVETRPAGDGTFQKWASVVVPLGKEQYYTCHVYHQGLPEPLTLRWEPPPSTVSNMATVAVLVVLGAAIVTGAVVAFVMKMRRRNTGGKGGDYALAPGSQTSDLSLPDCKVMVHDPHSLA

Binder: SAPDNRPAL
- % lysis of peptide-pulsed RMA target cells by mannan-HMFG CTL, E:T 50:1 [1]: 50%

Binder: YGQLDIFPA
- % lysis of peptide-pulsed P815 target cells by CTL of mannan-HMFG immunised BALB/c mice (51Cr release) [2]: 0%

Binder: VPSSTEKNA
- % lysis of peptide-pulsed P815 target cells by mannan-HMFG CTL, E:T 50:1 [3]: 78%

Binder: SVPSSTEKN
- % lysis of peptide-pulsed P815 target cells by mannan-HMFG CTL, E:T 50:1 [2]: 0%

Binder: APGSTAPPA
- % lysis of peptide-pulsed RMA target cells by mannan-HMFG CTL [1]: 70%

Binder: KNYGQLDIF
- % lysis of peptide-pulsed P815 target cells by CTL of mannan-HMFG immunised BALB/c mice (51Cr release) [3]: 0%

Binder: AVSMTSSVL
- % lysis of peptide-pulsed RMA target cells by mannan-HMFG CTL, E:T 50:1 [1]: 18%
- % lysis of peptide-pulsed RMA target cells by mannan-HMFG CTL, E:T 100:1 [1]: 40%
- % lysis of peptide-pulsed RMA target cells by mannan-HMFG CTL, E:T 50:1 [4]: 18%
- % lysis of peptide-pulsed RMA target cells by mannan-HMFG CTL, E:T 100:1 [4]: 40%
- % lysis of peptide-pulsed P815 target cells by mannan-HMFG CTL, E:T 50:1 [5]: 77%

Binder: NYGQLDIFP
- % lysis of peptide-pulsed P815 target cells by CTL of mannan-HMFG immunised BALB/c mice (51Cr release) [5]: 0%

The next lines start with the values.

- % lysis of peptide-pulsed RMA target cells by mannan-HMFG CTL, E:T 50:1 [1]: 20%
- % lysis of peptide-pulsed RMA target cells by mannan-HMFG CTL, E:T 100:1 [1]: 42%
- % lysis of peptide-pulsed RMA target cells by mannan-HMFG CTL, E:T 50:1 [4]: 20%
- % lysis of peptide-pulsed RMA target cells by mannan-HMFG CTL, E:T 100:1 [4]: 42%
Binder: CRRKNYGQL

- % lysis of peptide-pulsed P815 target cells by mannan-HMFG CTL, E:T 50:1 [2]: 62%
- % lysis of peptide-pulsed RMA target cells by mannan-HMFG CTL [4]: 80%
Binder: SAPDTRPAP

- % lysis of peptide-pulsed P815 target cells by mannan-HMFG CTL, E:T 50:1 [3]: 50%
Binder: APDTRPAPG

- % lysis of peptide-pulsed P815 target cells by mannan-HMFG CTL, E:T 50:1 [5]: 50%
Binder: YYQELQRDI
